In series [1] the test system is Iron regulatory protein 2 (rIRP2). Put plainly: EMSA. The note with it: aminoallyl-UTP-ATTO-680 incorporated in the labeled probe; competitor unmodified; 100 ng probe heated 3 min at 95 C, 120 ng His-IRP, 15 min room temperature, then 50 ug sodium heparin 10 min; 5% native acrylamide gel, 1x TBE; binding buffer ….
The test system of series [2] is Iron regulatory protein 1 (rIRP1). In words: EMSA. The conditions noted are these: aminoallyl-UTP-ATTO-680 incorporated in the labeled probe; competitor unmodified; 100 ng probe heated 3 min at 95 C, 120 ng His-IRP, 15 min room temperature, then 50 ug sodium heparin 10 min; 5% native acrylamide gel, 1x TBE; binding buffer …. (In EMSA bound probe runs differently from free probe, usually more slowly.)

Drawing on paper PMC3585816, this text covers binding signal (% of WT signal) for one substance.

For FTL IRE WT, the binding signal (% of WT signal) in series [1] and in series [2] was 100 each time.
